Laboratory results published in patent US12723246 (UNIVERSITY OF MASSACHUSETTS, dated 2026).

Target: the molecule itself
Test: negative-stain EM of the precipitate formed after tag cleavage; self-assembly into capsid-like structures
Text: Given that dArc Iresembles a Gag protein, and that retroviral Gag proteins have the ability to auto-assemble into capsids, the precipitate was examined at the EM level by negative staining. The presence of round structures of about 39.3±5.2 nm was seen, which resembled HIV capsids. FIGS. 8A and 8B.

B1: purified dArc1 protein, bacterially produced, after cleavage of the HIS-MBP tag (other, Drosophila, UniProt Q7K1U0 1-254, looked up)
chain: MAQLTQMTNEQLRELIEAVRAAAVGAAGSAAAAGGADASRGKGNFSACTHSFGGTRDHDVVEEFIGNIETYKDVEGISDENALKGISLLFYGMASTWWQGVRKEATTWKEAIALIREHFSPTKPAYQIYMEFFQNKQDDHDPIDTFVIQKRALLAQLPSGRHDEETELDLLFGLLNIKYRKHISRHSVHTFKDLLEQGRIIEHNNQEDEEQLATAKNTRGSKRTTRCTYCSFRGHTFDNCRKRQKDRQEEQHEE
notes: Self-assembles into capsid-like structures of about 39.3±5.2 nm; also called His-MBP-dArc1 (before cleavage)
binding result: binds
